Here are results for one molecule from patent US20210171613A1.

For this assay, the target named is Clostridium difficile toxin A (TcdA) (Clostridium difficile), P16154. Description: SPR (Biacore 3000), VHH over immobilized TcdA, 1:1 fit. The note with it: remark: other sources report otherwise. (Surface plasmon resonance follows binding to a sensor surface in real time, without labels.)
Clostridium difficile toxin A (TcdA) (Clostridium difficile), P16154, sequence (P16154 whole entry): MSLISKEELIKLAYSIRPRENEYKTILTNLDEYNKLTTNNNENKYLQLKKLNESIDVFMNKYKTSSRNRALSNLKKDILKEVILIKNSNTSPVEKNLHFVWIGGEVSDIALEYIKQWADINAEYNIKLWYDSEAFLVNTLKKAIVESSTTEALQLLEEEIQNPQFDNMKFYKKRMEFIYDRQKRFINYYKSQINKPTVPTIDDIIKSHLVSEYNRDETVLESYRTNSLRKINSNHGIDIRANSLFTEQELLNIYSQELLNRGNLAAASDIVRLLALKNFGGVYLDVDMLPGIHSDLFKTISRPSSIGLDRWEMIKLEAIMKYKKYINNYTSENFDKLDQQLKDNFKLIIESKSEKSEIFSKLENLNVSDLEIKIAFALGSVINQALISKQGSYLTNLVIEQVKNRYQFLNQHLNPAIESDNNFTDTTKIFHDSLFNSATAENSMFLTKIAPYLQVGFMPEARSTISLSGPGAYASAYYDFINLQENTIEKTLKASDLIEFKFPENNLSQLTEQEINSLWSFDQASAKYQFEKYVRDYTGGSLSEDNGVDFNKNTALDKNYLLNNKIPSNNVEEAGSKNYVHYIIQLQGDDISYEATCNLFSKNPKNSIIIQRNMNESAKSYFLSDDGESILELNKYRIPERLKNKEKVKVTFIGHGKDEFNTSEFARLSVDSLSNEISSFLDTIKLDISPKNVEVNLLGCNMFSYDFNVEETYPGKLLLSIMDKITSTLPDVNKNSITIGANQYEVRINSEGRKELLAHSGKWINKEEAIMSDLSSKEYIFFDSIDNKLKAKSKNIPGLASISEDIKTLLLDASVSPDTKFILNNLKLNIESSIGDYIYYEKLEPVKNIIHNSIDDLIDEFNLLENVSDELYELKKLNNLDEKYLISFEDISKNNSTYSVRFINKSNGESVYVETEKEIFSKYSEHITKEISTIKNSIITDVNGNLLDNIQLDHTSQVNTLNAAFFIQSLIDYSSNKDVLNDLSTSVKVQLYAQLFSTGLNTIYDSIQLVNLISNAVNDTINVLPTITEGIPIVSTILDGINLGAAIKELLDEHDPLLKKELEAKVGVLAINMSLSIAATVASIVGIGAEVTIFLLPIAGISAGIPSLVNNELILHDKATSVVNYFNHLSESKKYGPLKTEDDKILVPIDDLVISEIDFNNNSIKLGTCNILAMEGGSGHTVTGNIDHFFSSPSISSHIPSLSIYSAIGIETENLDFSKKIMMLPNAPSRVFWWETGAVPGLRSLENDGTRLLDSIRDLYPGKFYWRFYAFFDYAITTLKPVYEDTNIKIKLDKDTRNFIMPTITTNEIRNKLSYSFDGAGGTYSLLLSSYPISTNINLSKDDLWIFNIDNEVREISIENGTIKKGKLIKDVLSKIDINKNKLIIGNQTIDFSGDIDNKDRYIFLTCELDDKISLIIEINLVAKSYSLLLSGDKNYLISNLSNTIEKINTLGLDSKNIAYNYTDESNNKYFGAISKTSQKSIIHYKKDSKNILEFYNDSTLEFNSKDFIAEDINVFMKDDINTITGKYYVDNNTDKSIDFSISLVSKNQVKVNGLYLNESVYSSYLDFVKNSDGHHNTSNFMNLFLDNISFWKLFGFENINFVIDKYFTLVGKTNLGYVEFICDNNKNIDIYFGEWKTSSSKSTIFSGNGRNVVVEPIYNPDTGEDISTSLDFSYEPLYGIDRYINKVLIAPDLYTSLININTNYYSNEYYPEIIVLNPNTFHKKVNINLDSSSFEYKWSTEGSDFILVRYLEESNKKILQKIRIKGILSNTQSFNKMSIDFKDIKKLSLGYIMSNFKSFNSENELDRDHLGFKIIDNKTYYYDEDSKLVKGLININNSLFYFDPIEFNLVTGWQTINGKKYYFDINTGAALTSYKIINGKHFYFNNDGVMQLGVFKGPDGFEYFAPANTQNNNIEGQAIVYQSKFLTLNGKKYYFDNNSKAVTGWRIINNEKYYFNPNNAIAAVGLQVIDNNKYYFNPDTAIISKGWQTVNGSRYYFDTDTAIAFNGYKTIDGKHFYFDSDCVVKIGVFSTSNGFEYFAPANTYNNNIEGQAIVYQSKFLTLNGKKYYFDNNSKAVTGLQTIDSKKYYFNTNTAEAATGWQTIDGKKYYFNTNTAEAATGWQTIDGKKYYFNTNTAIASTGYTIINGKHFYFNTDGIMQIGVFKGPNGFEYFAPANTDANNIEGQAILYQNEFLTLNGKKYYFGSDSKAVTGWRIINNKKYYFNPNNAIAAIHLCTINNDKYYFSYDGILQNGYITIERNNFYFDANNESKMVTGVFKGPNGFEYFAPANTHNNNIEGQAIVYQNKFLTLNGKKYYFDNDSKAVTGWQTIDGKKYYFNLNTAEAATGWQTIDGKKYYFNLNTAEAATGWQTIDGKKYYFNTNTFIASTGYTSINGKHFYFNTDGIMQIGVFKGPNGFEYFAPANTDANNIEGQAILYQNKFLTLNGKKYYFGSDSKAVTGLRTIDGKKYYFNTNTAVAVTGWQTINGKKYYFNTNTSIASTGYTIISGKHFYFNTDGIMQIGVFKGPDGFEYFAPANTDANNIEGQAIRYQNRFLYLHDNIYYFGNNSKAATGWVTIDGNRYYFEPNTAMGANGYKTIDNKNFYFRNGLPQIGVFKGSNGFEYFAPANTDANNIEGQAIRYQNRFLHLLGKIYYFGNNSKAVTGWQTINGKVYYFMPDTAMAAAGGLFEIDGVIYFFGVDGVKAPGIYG

B1: Parent A26.8 VHH (VHH, not shown: small tags and cut ends)
VHH: QVKLEESGGGLVQAGGSLRLSCAASERTFSRYPVAWFRQAPGAEREFVAVISSTGTSTYYADSVKGRFTISRDNAKVTVYLQMNNLKREDTAVYFCAVNSQRTRLQDPNEYDYWGQGTQVTVSS
For orientation: Kd means the equilibrium constant for the complex coming apart. Read a high Kd as weaker binding. Consider B1, for which the Kd was found to be 18.7 nM.
